The values that follow come from paper PMC3971370 (Molecular plant, 2012).

This assay addresses nCFP–CPK3 (Arabidopsis thaliana, UniProt Q42479 1-529). As to the kind of experiment: split reporter.

nCFP–CPK3, sequence (Q42479 whole entry): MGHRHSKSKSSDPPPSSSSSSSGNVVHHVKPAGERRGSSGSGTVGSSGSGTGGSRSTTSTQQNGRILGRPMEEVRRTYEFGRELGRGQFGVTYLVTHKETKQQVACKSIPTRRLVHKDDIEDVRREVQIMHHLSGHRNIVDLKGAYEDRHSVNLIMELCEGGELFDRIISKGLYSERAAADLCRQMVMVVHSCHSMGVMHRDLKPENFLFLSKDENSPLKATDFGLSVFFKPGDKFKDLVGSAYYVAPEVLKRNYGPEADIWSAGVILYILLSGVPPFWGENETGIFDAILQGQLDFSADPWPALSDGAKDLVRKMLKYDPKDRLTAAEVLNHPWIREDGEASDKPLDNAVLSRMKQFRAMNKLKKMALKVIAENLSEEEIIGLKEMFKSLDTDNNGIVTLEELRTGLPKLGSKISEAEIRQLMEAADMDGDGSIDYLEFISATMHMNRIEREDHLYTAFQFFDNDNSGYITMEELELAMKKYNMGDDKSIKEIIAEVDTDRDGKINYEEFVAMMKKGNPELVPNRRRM

B1: cCFP–TPK1–R35A/R39A (natural protein)
chain: MSSDAARTPLLPTEKIDTMAQDFNLNSRTSSSRKARLRASRSAPRGDCMYNDDVKIDEPPPHPSKIPMFSDLNPNLRRVIMFLALYLTIGTLCFYLVRDQISGHKTSGVVDALYFCIVTMTTVGYGDLVPNSSASRLLACAFVFSGMVLVGHLLSRAADYLVEKQEALLVRAFHLRQSFGPTDILKELHTNKLRYKCYATCLVLVVLFIVGTIFLVMVEKMPVISAFYCVCSTVTTLGYGDKSFNSEAGRLFAVFWILTSSICLAQFFLYVAELNTENKQRALVKWVLTRRITNNDLEAADLDEDGVVGAAEFIVYKLKEMGKIDEKDISGIMDEFEQLDYDESGTLTTSDIVLAQTTSQIQR
Consider B1, for which the “BiFC signal relative to wild-type TPK1” value was ~0.5 fold of wild type.
